Consider one molecule from US20250277031A1 (BEIJING HANMI PHARMACEUTICAL, published 2025).

The test addresses T1, recombinant human CD47 (human, UniProt Q08722 19-139).
T1 construct: also called antigen CD47
The test can be described thus: ELISA, plate coated with 1 µg/mL recombinant human CD47, anti-human IgG-HRP, OD450. As for the experimental part:
Species specificity of the chimeric anti-human CD47 mAbs was determined by ELISA. A 96-well high-adsorption ELISA plate was coated with 1 μg/mL of the recombinant human CD47, cynomolgus CD47, rat CD47 and mouse CD47, at 100 μL per well using carbonate buffer solution, pH=9.6 at 4° C. overnight. The plate was washed 5 times with PBST, and then blocked using PBST with 1% BSA, 300 μL/well, and incubated at 25° C. for 1 hour, and then washed 5 times with PBST. The chimeric anti-human CD47 antibody samples serially diluted in PBST with 1% BSA were added, 100 μL/well, incubated at 25° C. for 1 hour, and then washed 5 times with PBST. The horseradish peroxidase-labeled anti-human IgG antibody (Chemicon, catalog number AP309P) diluted 1:10000 in PBST with 1% BSA was then added, 100 μL per well, and incubated at 25° C. for 1 hour. The plate was washed 5 times with PBST. The colorimetric substrate TMB was added, 100 μL/well, and developed at room temperature for 10 minutes. 1M H₂SO₄ was added, 100 μL/well, to stop the development. The absorbance at 450 nm was read on a microplate reader.

T1 sequence (Q08722 19-139 limits assumed): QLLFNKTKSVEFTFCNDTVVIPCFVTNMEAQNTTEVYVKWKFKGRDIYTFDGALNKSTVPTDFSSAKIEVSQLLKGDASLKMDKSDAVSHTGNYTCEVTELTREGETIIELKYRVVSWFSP

B1: chimeric anti-human CD47 monoclonal antibody mAb-18-5 (antibody, human IgG1, kappa)
heavy: not shown
light: DIVMTQSQKFMSTSVGDRVSITCKASQNVRTSIAWYQQKSGQSPKTLIYLASNRHTGVPDRFTGSGSGTDFTLTISNVQSEDLADYFCLQHWNYPFTFGSGTKLEIKRTVAAPSVFIFPPSDEQLKSGTASVVCLLNNFYPREAKVQWKVDNALQSGNSQESVTEQDSKDSTYSLSSTLTLSKADYEKHKVYACEVTHQGLSSPVTKSFNRGEC
Consider B1, for which the EC50 came out at 0.086 nM.
